Article PMC5768706, “Structural basis for chitin acquisition by marine Vibrio species” (Nature Communications, 2018)

Assays:
[1] = target: T1, VhChiP (OM-expressed, native) (Vibrio harveyi, UniProt L0RVU0); assay: single-channel electrophysiology, planar lipid bilayer, ion current block titration; assay type: binding; settings: 1 M KCl, 20 mM HEPES pH 7.5, 25 °C, -100 mV, sugar on cis side; range printed jointly for both full-length channels
T1 construct: gene chiP; full-length mature protein after signal peptide processing, no His-tag, pET23d(+), expressed in outer membrane of E. coli BL21(DE3) omp8 rosetta, homotrimer
T1 sequence (L0RVU0 26-375): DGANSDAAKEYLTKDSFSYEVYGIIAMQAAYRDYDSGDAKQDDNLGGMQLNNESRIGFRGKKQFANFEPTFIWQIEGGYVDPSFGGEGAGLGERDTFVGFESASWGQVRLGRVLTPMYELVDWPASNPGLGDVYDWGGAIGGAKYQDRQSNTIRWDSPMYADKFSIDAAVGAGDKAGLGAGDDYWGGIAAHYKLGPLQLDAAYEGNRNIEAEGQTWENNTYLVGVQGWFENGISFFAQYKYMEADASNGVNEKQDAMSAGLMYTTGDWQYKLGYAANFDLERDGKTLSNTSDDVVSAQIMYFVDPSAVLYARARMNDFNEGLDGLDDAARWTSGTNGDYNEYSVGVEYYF

[2] = target: T1, VhChiP (OM-expressed, native); assay: X-ray crystal structure of co-crystals; assay type: binding; settings: 10 mM GlcNAc4, 0.1 M MES pH 6.5, 28% PEG 400
[3] = target: OM-expressed VhChiP (chitoporin from Vibrio harveyi) (Vibrio harveyi); assay: crystal structure; OM-expressed VhChiP, 10 mg/mL, 0.4% C8E4; space group C2: 28% PEG 400, 0.2 M sodium acetate, 0.1 M MES pH 6.5
[4] = target: OM-expressed VhChiP (chitoporin from Vibrio harveyi) (Vibrio harveyi); assay: SDS-PAGE of non-boiled and boiled samples; purified protein loaded non-boiled and boiled; heat-modifiable mobility
[5] = target: in vitro-folded VhChiP (Vibrio harveyi); assay: as above
[6] = target: in vitro-folded VhChiP (Vibrio harveyi); assay: crystal structure; in vitro-folded SeMet VhChiP, ~12 mg/mL, 0.4% C8E4; crystal form I P2_(1): 30% PEG 400, 0.05 M NaCl, 0.1 M sodium citrate pH 5.5; crystal form II: 28% PEG 400, 0.5 M potassium iodide, 0.1 M Tris pH 8.5

## CC(=O)N[C@H]1[C@H](O[C@H]2[C@H](O)[C@@H](NC(C)=O)[C@H](O[C@H]3[C@H](O)[C@@H](NC(C)=O)C(O)O[C@@H]3CO)O[C@@H]2CO)O[C@H](CO)[C@@H](O[C@@H]2O[C@H](CO)[C@@H](O[C@@H]3O[C@H](CO)[C@@H](O[C@@H]4O[C@H](CO)[C@@H](O)[C@H](O)[C@H]4NC(C)=O)[C@H](O)[C@H]3NC(C)=O)[C@H](O)[C@H]2NC(C)=O)[C@@H]1O (stereo partly drawn) [chitohexaose]
[1]
  K: 2–5 × 10^5

## CC(=O)N[C@H]1[C@H](O[C@H]2[C@H](O)[C@@H](NC(C)=O)C(O)O[C@@H]2CO)O[C@H](CO)[C@@H](O[C@@H]2O[C@H](CO)[C@@H](O[C@@H]3O[C@H](CO)[C@@H](O)[C@H](O)[C@H]3NC(C)=O)[C@H](O)[C@H]2NC(C)=O)[C@@H]1O (stereo partly drawn) [chitotetraose]
[2]
  X-ray crystal structure of co-crystals: we co-crystallized OM-expressed VhChiP with chitotetraose (GlcNAc4)

## OM-expressed VhChiP (chitoporin from Vibrio harveyi) (natural protein)
[3]
  stoichiometry N: 3
[4]
  stoichiometry N: 3

## in vitro-folded VhChiP (natural protein)
[5]
  stoichiometry N: 3
[6]
  stoichiometry N: 3
